# Data: the supplement of paper PMC9112550, “Optimization of the antimicrobial peptide Bac7 by deep mutational scanning” (BMC Biology, 2022)
# Tested on: Escherichia coli TOP10
# Test: shrunken log2 fold change of peptide-encoding DNA abundance (4.5 h post-induction vs induction); higher = less antimicrobial activity (less host growth inhibition)
# Conditions: time post-induction: 4.5 h; library: site-saturation at positions 5, 18, 19, 20
# 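Further: peptides expressed intracellularly from a pBAD plasmid library in pooled LB shake-flask culture, induced with 0.3% L-arabinose, DNA abundance read by NGS, three biological replicates, DESeq2 with apeglm shrinkage.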
row,Sequence,shrunken log2 fold change
1,RRIRDRPPRLPRPRPRPNVYPRP,0.0576
2,RRIRLRPPRLPRPRPRPPPDPRP,1.19
3,RRIRQRPPRLPRPRPRPEFQPRP,-0.0764
4,RRIRDRPPRLPRPRPRPAKWPRP,0.486
5,RRIRSRPPRLPRPRPRPPPNPRP,0.707
6,RRIRERPPRLPRPRPRPSGIPRP,-0.272
7,RRIRRRPPRLPRPRPRPGDMPRP,0.0846
8,RRIRSRPPRLPRPRPRPWNYPRP,0.0149
9,RRIRNRPPRLPRPRPRPGVMPRP,-0.141
10,RRIRHRPPRLPRPRPRPRPAPRP,0.479
11,RRIRPRPPRLPRPRPRPAIFPRP,-0.0302
12,RRIRCRPPRLPRPRPRPTTLPRP,-0.219
13,RRIRERPPRLPRPRPRPIQNPRP,0.0753
14,RRIRHRPPRLPRPRPRPQDLPRP,-0.0414
15,RRIRERPPRLPRPRPRPVPIPRP,0.343
16,RRIRARPPRLPRPRPRPEWVPRP,0.775
17,RRIRPRPPRLPRPRPRPCDTPRP,-0.193
18,RRIRVRPPRLPRPRPRPWYGPRP,-0.367
19,RRIRTRPPRLPRPRPRPFLDPRP,-0.553
20,RRIRVRPPRLPRPRPRPNLMPRP,-0.153
21,RRIRQRPPRLPRPRPRPRKIPRP,-0.064
22,RRIRLRPPRLPRPRPRPGYQPRP,-0.133

row,Sequence,shrunken log2 fold change
1,RRIRKRPPRLPRPRPRPTIYPRP,-0.0381
2,RRIRCRPPRLPRPRPRPKQCPRP,0.269
3,RRIRYRPPRLPRPRPRPDNWPRP,-0.38
4,RRIRQRPPRLPRPRPRPNAQPRP,0.0116
5,RRIRWRPPRLPRPRPRPCNIPRP,-0.133
6,RRIRVRPPRLPRPRPRPPCEPRP,0.229
7,RRIRHRPPRLPRPRPRPMKMPRP,0.043
8,RRIRWRPPRLPRPRPRPVPNPRP,0.0838
9,RRIRPRPPRLPRPRPRPCPQPRP,-0.0291
10,RRIRVRPPRLPRPRPRPQAQPRP,0.173
11,RRIRARPPRLPRPRPRPFKEPRP,-0.0239
12,RRIRHRPPRLPRPRPRPSRFPRP,0.0223
13,RRIRERPPRLPRPRPRPMMVPRP,0.0544
14,RRIRERPPRLPRPRPRPCHTPRP,-0.0292
15,RRIRFRPPRLPRPRPRPEDKPRP,-0.0503
16,RRIRNRPPRLPRPRPRPVFQPRP,-0.623
17,RRIRKRPPRLPRPRPRPAARPRP,0.742
18,RRIRFRPPRLPRPRPRPMTAPRP,-0.00148
19,RRIRFRPPRLPRPRPRPHFLPRP,-0.827
20,RRIRHRPPRLPRPRPRPLNWPRP,0.0279
21,RRIRVRPPRLPRPRPRPLKCPRP,-0.412
22,RRIRHRPPRLPRPRPRPPRDPRP,0.346

row,Sequence,shrunken log2 fold change
1,RRIRNRPPRLPRPRPRPDGNPRP,0.102
2,RRIRRRPPRLPRPRPRPFWFPRP,-0.138
3,RRIRARPPRLPRPRPRPPGGPRP,0.864
4,RRIRDRPPRLPRPRPRPRCWPRP,0.923
5,RRIRFRPPRLPRPRPRPVIWPRP,-0.0895
6,RRIRHRPPRLPRPRPRPHWRPRP,0.125
7,RRIRRRPPRLPRPRPRPHTYPRP,0.573
8,RRIRARPPRLPRPRPRPTLGPRP,0.504
9,RRIRARPPRLPRPRPRPYNPPRP,-0.388
10,RRIRVRPPRLPRPRPRPAVLPRP,1.75
11,RRIRHRPPRLPRPRPRPKRAPRP,0.0906
12,RRIRIRPPRLPRPRPRPKGHPRP,0.0764
13,RRIRERPPRLPRPRPRPCDLPRP,-0.01
14,RRIRRRPPRLPRPRPRPRQQPRP,-0.0361
15,RRIRVRPPRLPRPRPRPIWCPRP,0.0502
16,RRIRHRPPRLPRPRPRPVNWPRP,0.18
17,RRIRTRPPRLPRPRPRPGSWPRP,0.844
18,RRIRMRPPRLPRPRPRPQWVPRP,0.0772
19,RRIRYRPPRLPRPRPRPYDLPRP,-0.0181
20,RRIRWRPPRLPRPRPRPWLDPRP,-0.231
21,RRIRTRPPRLPRPRPRPLNNPRP,-0.135
22,RRIRARPPRLPRPRPRPMTVPRP,-0.0938

row,Sequence,shrunken log2 fold change
1,RRIRVRPPRLPRPRPRPCYLPRP,-0.56
2,RRIRWRPPRLPRPRPRPLQRPRP,0.189
3,RRIRWRPPRLPRPRPRPRCLPRP,0.164
4,RRIRYRPPRLPRPRPRPMCKPRP,-0.368
5,RRIRIRPPRLPRPRPRPYCAPRP,-0.978
6,RRIRPRPPRLPRPRPRPSEGPRP,-0.148
7,RRIRTRPPRLPRPRPRPELIPRP,-0.0864
8,RRIRFRPPRLPRPRPRPDMTPRP,-0.0215
9,RRIRQRPPRLPRPRPRPFKQPRP,-0.24
10,RRIRPRPPRLPRPRPRPSSDPRP,-0.317
11,RRIRWRPPRLPRPRPRPMGNPRP,-0.0828
12,RRIRQRPPRLPRPRPRPSGQPRP,-0.0485
13,RRIRTRPPRLPRPRPRPKRRPRP,0.513
14,RRIRARPPRLPRPRPRPNIIPRP,-0.248
15,RRIRSRPPRLPRPRPRPPHWPRP,0.5
16,RRIRNRPPRLPRPRPRPKKVPRP,-0.0914
17,RRIRYRPPRLPRPRPRPYIWPRP,-0.29
18,RRIRMRPPRLPRPRPRPPFHPRP,0.0707
19,RRIRNRPPRLPRPRPRPNQFPRP,-0.376
20,RRIRGRPPRLPRPRPRPEMQPRP,1.41
21,RRIRFRPPRLPRPRPRPPQIPRP,0.241
22,RRIRWRPPRLPRPRPRPDVQPRP,0.0431

row,Sequence,shrunken log2 fold change
1,RRIRSRPPRLPRPRPRPNINPRP,-0.612
2,RRIRFRPPRLPRPRPRPYWVPRP,-0.683
3,RRIRERPPRLPRPRPRPLLTPRP,-0.116
4,RRIRERPPRLPRPRPRPCWLPRP,-0.0175
5,RRIRDRPPRLPRPRPRPIGLPRP,-0.00129
6,RRIRKRPPRLPRPRPRPMKYPRP,-0.152
7,RRIRYRPPRLPRPRPRPWNKPRP,-0.00965
8,RRIRNRPPRLPRPRPRPLHGPRP,-0.0305
9,RRIRGRPPRLPRPRPRPHDKPRP,0.475
10,RRIRQRPPRLPRPRPRPADRPRP,0.0738
11,RRIRDRPPRLPRPRPRPCVPPRP,-0.135
12,RRIRGRPPRLPRPRPRPMGMPRP,0.886
13,RRIRFRPPRLPRPRPRPPSWPRP,0.4
14,RRIRARPPRLPRPRPRPCESPRP,0.214
15,RRIRCRPPRLPRPRPRPDPPPRP,0.52
16,RRIRRRPPRLPRPRPRPDTHPRP,-0.254
17,RRIRDRPPRLPRPRPRPAEAPRP,0.314
18,RRIRWRPPRLPRPRPRPNTAPRP,0.055
19,RRIRARPPRLPRPRPRPSLLPRP,0.321
20,RRIRERPPRLPRPRPRPGCCPRP,0.131
21,RRIRARPPRLPRPRPRPMACPRP,0.879
